According to article PMC9860250:
Read-outs that look alike come from different tables or passages of the source.

What was measured:
[1] = molecular target: T1, Lsm2-8 heteroheptameric ring (UniProt P38203;P57743;P40070;P40089;Q06406;P53905;P47093 …); experiment: EMSA
T1 sequence 1: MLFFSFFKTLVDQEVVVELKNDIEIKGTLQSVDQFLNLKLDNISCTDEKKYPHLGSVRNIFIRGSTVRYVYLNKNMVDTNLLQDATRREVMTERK
T1 sequence 2: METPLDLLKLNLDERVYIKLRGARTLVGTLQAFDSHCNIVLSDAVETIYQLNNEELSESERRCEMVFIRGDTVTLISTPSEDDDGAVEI
T1 sequence 3: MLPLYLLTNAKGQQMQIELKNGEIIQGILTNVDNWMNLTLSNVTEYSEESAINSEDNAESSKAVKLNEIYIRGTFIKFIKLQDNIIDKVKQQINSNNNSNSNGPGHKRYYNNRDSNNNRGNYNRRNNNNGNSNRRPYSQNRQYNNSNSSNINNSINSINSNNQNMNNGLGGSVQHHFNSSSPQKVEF
T1 sequence 4: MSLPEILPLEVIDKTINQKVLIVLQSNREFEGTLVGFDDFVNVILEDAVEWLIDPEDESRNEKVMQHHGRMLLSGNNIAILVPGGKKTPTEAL
T1 sequence 5: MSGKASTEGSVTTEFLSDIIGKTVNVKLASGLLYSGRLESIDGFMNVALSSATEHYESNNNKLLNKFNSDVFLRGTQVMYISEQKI
T1 sequence 6: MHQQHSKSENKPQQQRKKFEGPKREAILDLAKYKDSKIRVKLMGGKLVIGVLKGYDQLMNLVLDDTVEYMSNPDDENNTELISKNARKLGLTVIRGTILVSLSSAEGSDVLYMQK
T1 sequence 7: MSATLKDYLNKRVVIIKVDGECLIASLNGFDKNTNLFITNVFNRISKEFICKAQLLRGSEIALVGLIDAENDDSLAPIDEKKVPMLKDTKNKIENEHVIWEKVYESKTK

[2] = molecular target: T1, Lsm2-8 heteroheptameric ring; experiment: EMSA; remark: listed apart in the source

B1: U6_WT/U2_WT helix II (dsRNA)
RNA 1: UACAAAGAGAUUUAUUUCGUUUU
RNA 2: ACGAAUCUCUUUGCCUUUUGGCUUAGAU
modifications: 3'-phosphate on U6
Q: Does B1 bind [1]?
A: binds

Q: Does UACAAAGAGAUUUAUUUCGUUUU (ssRNA, 3'-phosphate) [U6_WT] bind [2]?
A: binds
